# Measurements reported in EP4591887A1, “GPC3 ANTIBODY-DRUG CONJUGATE AND USE THEREOF” (priority 2022, dated 2024).
# Key:
# [1] = tested on: PDX model LIV#219 of nude mice with human liver cancer; test: Antitumor activity in LIV#219 liver cancer PDX model; format: in vivo, BALB/c nude mice; details: 3 mg/kg, Day 26
# Experimental: The antitumor activity of GPC3-ADCs was tested in an LIV#219 liver cancer PDX model. The model has a higher expression level of GPC3 RNA, and a positive expression of GPC3 as confirmed by FACS analysis.
# The process of the establishment of a PDX model of nude mice with human liver cancer was as follows: A tumor tissue with a volume size of about 15-30 mm^3 was transplanted subcutaneously under the back of the BALB/c nude mice. When the tumor volume reached 250-360 mm^3, the mice were divided into a total of 4 groups by a randomized block method, with 6 mice per group, ensuring uniformity in tumor volume and balance in body weight between these groups. The groups included a vehicle group, a 3 mg/kg GC33-L1-D1 administration group, a 3 mg/kg Hu 52H5D3B8-7-L1-D1 administration group, and a 3 mg/kg Hu 52H5D3B8-8-L1-D1 administration group.
# Data analysis: During the experiment, the tumor volume was measured twice a week. The calculation formula for the tumor volume (TV) is: TV = l × w^2 / 2, in which l and w represent the measured length and width of the tumor, respectively. According to the measurement results, the relative tumor volume (RTV) was calculated by RTV = Vf / V0, in which V0 is the tumor volume measured at the time of grouping for administration (i.e., Day 0), and Vf is the tumor volume measured on the last day. […]
# human GPC3 (Glypican-3) [2] = biological target: T1, human GPC3 (Glypican-3) (human, UniProt P51654 25-580); test: cell-based or functional assay
# human GPC3 (Glypican-3) [3] = biological target: T1, human GPC3 (Glypican-3); test: cell-based or functional assay; remark: listed apart in the source
molecule,measurement,setting,value
"GC33-L1-D1 (antibody, V domains shown, MC-vc-PAB-MMAE (L1-D1) on cysteine thiols of the antibody freed by TCEP reduction of disulfide bonds; positions not given) VH: QVQLVQSGAEVKKPGASVKVSCKASGYTFTDYEMHWVRQAPGQGLEWMGALDPKTGDTAYSQKFKGRVTLTADKSTSTAYMELSSLTSEDTAVYYCTRFYSYTYWGQGTLVTVSS VL: DVVMTQSPLSLPVTPGEPASISCRSSQSLVHSNGNTYLHWYLQKPGQSPQLLIYKVSNRFSGVPDRFSGSGSGTDFTLKISRVEAEDVGVYYCSQNTHVPPTFGQGTKLEIK",relative tumor proliferation rate (T/C) (%),[1],54.90%
same,tumor growth inhibition rate (TGI %),[1],45.10%
same,"EC50 value of cytotoxicity, HepG2 cells (96 h, PrestoBlue)",human GPC3 (Glypican-3) [2],73.2 ng/mL
same,"EC50 value of cytotoxicity, Huh7 cells (96 h, PrestoBlue)",human GPC3 (Glypican-3) [2],78.6 ng/mL
same,"Percentage reduction of GPC3 on cell surface (%), Huh7 cells, 2 h at 37°C against ice, FACS",human GPC3 (Glypican-3) [3],63.1%
